US20140087995A1 (published 2014)
Numbered stars: 1 amine (or outer) side, 2 acyl side, 3 side chain; on linkers, the order of the positions; unused ones are H or OH. Bridge positions count the residues as written; N and C are the ends. Side chains are listed from the residue outwards. Ends that are not written are not given here. * marks the point of attachment. C20 diacid = O=C(O)CCCCCCCCCCCCCCCCCCC(=O)*; γGlu = O=C(O)[C@H](CCC(=O)[*:2])N[*:1]; AEEA = NCCOCCOCC(=O)O

T1: human calcitonin receptor (human, UniProt P30988 25-474)
T1 sequence (looked up): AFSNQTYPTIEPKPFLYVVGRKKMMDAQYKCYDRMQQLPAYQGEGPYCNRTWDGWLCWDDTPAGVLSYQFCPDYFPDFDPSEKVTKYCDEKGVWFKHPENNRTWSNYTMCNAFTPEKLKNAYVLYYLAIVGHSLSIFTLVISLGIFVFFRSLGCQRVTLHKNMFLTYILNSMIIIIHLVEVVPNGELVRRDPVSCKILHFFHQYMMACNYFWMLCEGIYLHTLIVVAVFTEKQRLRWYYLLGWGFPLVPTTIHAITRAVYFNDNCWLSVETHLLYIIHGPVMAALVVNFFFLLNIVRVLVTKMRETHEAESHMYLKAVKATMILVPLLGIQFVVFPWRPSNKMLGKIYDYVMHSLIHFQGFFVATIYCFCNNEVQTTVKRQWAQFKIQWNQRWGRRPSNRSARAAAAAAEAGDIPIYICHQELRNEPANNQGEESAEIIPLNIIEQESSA


Biological target: T1, human calcitonin receptor
Assay: cell-based or functional assay

hCTR funct. EC50 | Binder
0.932 nM | K([AEEA-γGlu-C20 diacid])CNTATCATQRLAHFLRHSSPNFGAIPSSTNVGPNTY-NH2 (disulfide 2-7; N-terminus assumed; SMILES CC[C@H](C)[C@H](NC(=O)[C@H](C)NC(=O)CNC(=O)[C@H](Cc1ccccc1)NC(=O)[C@H](CC(N)=O)NC(=O)[C@@H]1CCCN1C(=O)[C@H](CO)NC(=O)[C@H](CO)NC(=O)[C@H](Cc1c[nH]cn1)NC(=O)[C@H](CCCNC(=N)N)NC(=O)[C@H](CC(C)C)NC(=O)[C@H](Cc1ccccc1)NC(=O)[C@H](Cc1c[nH]cn1)NC(=O)[C@H](C)NC(=O)[C@H](CC(C)C)NC(=O)[C@H](CCCNC(=N)N)NC(=O)[C@H](CCC(N)=O)NC(=O)[C@@H](NC(=O)[C@H](C)NC(=O)[C@@H]1CSSC[C@H](NC(=O)[C@@H](N)CCCCNC(=O)COCCOCCNC(=O)CC[C@H](NC(=O)CCCCCCCCCCCCCCCCCCC(=O)O)C(=O)O)C(=O)N[C@@H](CC(N)=O)C(=O)N[C@@H]([C@@H](C)O)C(=O)N[C@@H](C)C(=O)N[C@@H]([C@@H](C)O)C(=O)N1)[C@@H](C)O)C(=O)N1CCC[C@H]1C(=O)N[C@@H](CO)C(=O)N[C@@H](CO)C(=O)N[C@H](C(=O)N[C@@H](CC(N)=O)C(=O)N[C@H](C(=O)NCC(=O)N1CCC[C@H]1C(=O)N[C@@H](CC(N)=O)C(=O)N[C@H](C(=O)N[C@@H](Cc1ccc(O)cc1)C(N)=O)[C@@H](C)O)C(C)C)[C@@H](C)O, also called compound 68)
37.5 nM | K([AEEA-γGlu-C20 diacid])CNTATCATQRLAKFLRHSSPNFGAIPSSTPVGSNTY-NH2 (disulfide 2-7; N-terminus assumed; SMILES CC[C@H](C)[C@H](NC(=O)[C@H](C)NC(=O)CNC(=O)[C@H](Cc1ccccc1)NC(=O)[C@H](CC(N)=O)NC(=O)[C@@H]1CCCN1C(=O)[C@H](CO)NC(=O)[C@H](CO)NC(=O)[C@H](Cc1c[nH]cn1)NC(=O)[C@H](CCCNC(=N)N)NC(=O)[C@H](CC(C)C)NC(=O)[C@H](Cc1ccccc1)NC(=O)[C@H](CCCCN)NC(=O)[C@H](C)NC(=O)[C@H](CC(C)C)NC(=O)[C@H](CCCNC(=N)N)NC(=O)[C@H](CCC(N)=O)NC(=O)[C@@H](NC(=O)[C@H](C)NC(=O)[C@@H]1CSSC[C@H](NC(=O)[C@@H](N)CCCCNC(=O)COCCOCCNC(=O)CC[C@H](NC(=O)CCCCCCCCCCCCCCCCCCC(=O)O)C(=O)O)C(=O)N[C@@H](CC(N)=O)C(=O)N[C@@H]([C@@H](C)O)C(=O)N[C@@H](C)C(=O)N[C@@H]([C@@H](C)O)C(=O)N1)[C@@H](C)O)C(=O)N1CCC[C@H]1C(=O)N[C@@H](CO)C(=O)N[C@@H](CO)C(=O)N[C@H](C(=O)N1CCC[C@H]1C(=O)N[C@H](C(=O)NCC(=O)N[C@@H](CO)C(=O)N[C@@H](CC(N)=O)C(=O)N[C@H](C(=O)N[C@@H](Cc1ccc(O)cc1)C(N)=O)[C@@H](C)O)C(C)C)[C@@H](C)O, also called compound 74)
